In patent US11851421B2, “Near-infrared cyanine dyes and conjugates thereof” (BRACCO IMAGING S.P.A., priority 2020, dated 2023):

How the values were obtained:
[1] = Optical properties: excitation/emission maxima and absolute fluorescence quantum yield; type: physicochemical
Protocol: A dual-beam UV-VIS spectrophotometer (Lambda 40, Perkin Elmer) was used to determine the absorbance (Abs) of the compounds of the invention. Emission/excitation (Em/Ex) spectra and absolute fluorescence quantum yield (ϕ) measurements were carried out on a spectrofluorometer (FluoroLog-3 1IHR-320, Horiba Jobin Yvon) equipped with an F-3018 integrating sphere accessory. The measurements were performed using an excitation wavelength at maximum absorbance of different dyes, and the sample was excited with a 450 W Xenon Light Source. Detection was performed by photomultiplier tubes (PMT-NIR) cooled detector or by TBX-04 detector. Dye solutions were carefully prepared to have an absorbance lower than 0.1 (optical densities) to minimize re-absorption phenomena.
The compounds of the invention have been characterized in terms of their optical properties in vitro in aqueous medium (i.e., water/PBS pH 7.4) and in a clinical chemistry control serum (Seronorm, Sero SA), mimicking the chemical composition and optical properties of human serum. All dye or dye-conjugate solutions were freshly prepared. ICG and S0456 were used as commercial references.
In particular, the excitation and emission maxima and the absolute fluorescence quantum yield (Φ) of representative compounds of formula (I) and conjugates of formula (II) are shown in Table II.

[2] = target: T1, human serum albumin (HSA) (Homo sapiens, UniProt P02768); assay: Binding affinity to human serum albumin (absorbance peak shift or ultrafiltration method)
T1 construct: purchased Sigma Aldrich A9511
Protocol: An analysis of the binding affinity of the compounds of the invention to human albumin was carried out and the results compared with ICG and […] as a reference. Binding affinity to human serum albumin (HSA; Sigma Aldrich, A9511) was measured using two methods, according to the level of binding affinity of the compounds. The first method, optimal for compounds which strongly interact with HSA, is based on the analysis of the absorbance spectrum peak shift after the incubation of the dye in solutions containing HSA. […] The measure was performed at the maximum absorbance wavelength of the shifted peak. The second method, optimal for compound with low affinity for HSA, is based on measuring the variation of the absorbance of solutions containing the dye and various concentrations of HSA after ultrafiltration. […] In the first method, ΔA/b corresponds to the absorbance measured for each sample, whereas in the second method ΔA/b is obtained subtracting the absorbance of the control sample (dye without HSA) to the absorbance of each other sample.

[3] = target: T2, human recombinant integrin αvβ3 (Homo sapiens, UniProt P05106+P06756); assay: Receptor binding affinity ELISA (Vitronectin-coated plates); conditions: duplicate, read-out: Receptor affinity (IC50, nM ± St. Dev.)
T2 construct: purchased R&D Systems
Protocol: Briefly, 96-well ELISA plates were coated overnight at 4° C. with the extracellular matrix (ECM) protein Vitronectin in carbonate buffer (15 mM Na2CO3, 35 mM NaHCO3, pH 9.6). Each well was then washed with PBS-T-buffer (phosphate-buffered saline/Tween20, 137 mM NaCl, 2.7 mM KCl, 10 mM Na2HPO4, 2 mM KH2PO4, 0.01% Tween20, pH 7.4) and blocked for 1 h at RT with TS-B-buffer (Tris-saline/BSA buffer; 20 mM Tris-HCl, 150 mM NaCl, 1 mM CaCl2, 1 mM MgCl2, 1 mM MnCl2, pH 7.5, 1% BSA). In the meantime, a dilution series of the compound and internal standard was prepared in an extra plate. After washing the assay plate three times with PBS-T, 50 μL of the dilution series were transferred to each well. 50 μL of a solution of human recombinant integrin αvβ3 (R&D Systems, 1 μg/mL) in TS-B-buffer was transferred to the wells and incubated for 1 h. The plate was washed three times with PBS-T buffer, and then primary antibody anti-αvβ3 was added to the plate. After incubation and washing three times with PBS-T, the secondary anti-IgG peroxidase-labeled antibody was added to the plate and incubated for 1 h. After washing the plate three times with PBS-T, the plate was developed by quick addition of 3,3′,5,5′-tetrametylbenzidine (TMB) and incubated for 5 min in the dark. The reaction was stopped with 3 M H2SO4, and the absorbance was measured at 450 nm with a plate reader (Victor3, Perkin Elmer).
The IC50 of the representative Compounds 1, 2 and 4 was tested in duplicate, and the resulting inhibition curves were analyzed using GraphPad Prism version 4.0 for Windows (GraphPad Software). The inflection point defines the IC50 value.

[4] = test system: WM-266-4 human melanoma cells; assay: Cell uptake by FACS in presence of human serum; type: cell-based; conditions: WM-266-4 cells; fluorescence intensity in absence of serum = 100%
Protocol: The human melanoma cell line WM-266-4 (ATCC, CRL-1676) was used as in vitro model to assess the cell uptake of representative integrin-binding Compounds 1, 2 and 4, based on the high expression of the integrin receptors, particularly αvβ3, on the membrane of these cells (Capasso et al., PlosOne 2014).
Adherent cells at about 70% confluence were incubated with the Compounds 1 or 3 (1 μM) for 2 h at 37° C. (5% CO2) in presence of Dulbecco's Modified Eagle's Medium (DMEM) supplemented with 10% FBS, 2 mM glutamine, 100 IU/mL penicillin and 100 μg/mL streptomycin. […] Fluorescence Activated Cell Sorting (FACS) was used to detect the fluorescence signal within the cells, as measure of cell uptake. Samples were excited with an Argon laser and the emission detected using a 670 nm longpass filter. Values of fluorescence intensity were obtained from the histogram statistic produced by the instrument software.
The residual internalization was calculated by considering the value of fluorescence intensity in absence of the competitor as 100%.
Furthermore, to assess the effect of biological fluids on the cell uptake, parallel experiments were performed incubating the cells with a compounds of the invention in presence of human serum from male AB plasma (Sigma Aldrich, H4522). The residual internalization was calculated by considering the value of fluorescence intensity in absence of the serum as 100%. […]

[5] = test system: human glioblastoma U87MG cells; assay: Tumor uptake in animal model of human glioblastoma (subcutaneous), ex vivo optical imaging; conditions: ex vivo tumor-to-muscle, 24 h after i.v. administration, glioblastoma tumor bearing mice, n = 5/group
Protocol: Tumor uptake experiments were carried out in an animal model of human glioblastoma (subcutanous) overexpressing the integrin receptors, particularly αvβ3. Briefly, human glioblastoma U87MG cells (ATCC, HTB-14) were cultured in Eagle's Minimum Essential Medium (EMEM) supplemented with 10% Fetal Bovine Serum (FBS), 2 mM glutamine, 100 IU/mL penicillin, 100 μg/mL streptomycin. Male Balb/c nu/nu mice, 4-6 weeks of age (Charles River Laboratories), underwent subcutaneous implantation (right flank) of about 10 million cells suspended in 0.1 mL of EMEM. Mice were housed 4 per cage with food and water ad libitum. Animals were fed with VRF1 (P) sterile diet (Special Diets Services Ltd) up to the end of the acclimation period (5 days). Then, AIN-76a rodent diet irradiated (Research Diets), a special diet that reduces auto-fluorescence, was used up to the end of the experiments. Tumor growth was monitored by longitudinal assessments using a caliper up to the target size of 300-600 mm^3 (3-4 weeks after cell implantation). […] Regions of interest (ROIs) were drawn on the excised tumor and healthy muscle tissues to evaluate signal intensity (expressed as Average Radiant Efficiency). The ratio between the fluorescence signal in the tumor and in the muscle (background tissue) was then calculated to assess the contrast.

[6] = test system: human pharyngeal carcinoma cells Detroit-562; assay: Tumor uptake in animal model of human head and neck cancer (orthotopic), ex vivo optical imaging; conditions: ex vivo anterior vs posterior tongue, 24 h after i.v. 3 nmol/mouse, H&N tumor bearing mice, n = 5/group
Protocol: Tumor uptake experiments were performed in an animal model of human head and neck cancer (orthotopic), using Detroit-562 cells, overexpressing in particular integrin receptor αvβ6. Briefly, the human pharyngeal carcinoma cells Detroit-562 (ATCC, CCL-138) were cultured in Eagle's Minimum Essential Medium (EMEM) supplemented with 10% Fetal Bovine Serum (FBS), 2 mM glutamine, 100 IU/mL penicillin, 100 μg/mL streptomycin. Male Balb/c nu/nu mice, 4-6 weeks of age (Charles River Laboratories), underwent orthotopic implantation in the anterior portion of the tongue of about 2.5 million cells suspended in 0.03 mL di EMEM. Mice were housed 4 per cage with food and water ad libitum. Animals were fed with VRF1 (P) sterile diet (Special Diets Services Ltd) up to the end of the acclimation period (5 days). Then, AIN-76a rodent diet irradiated (Research Diets), a special diet that reduces auto-fluorescence, was used up to the end of the experiments. Tumor growth was monitored by longitudinal assessments using a caliper up to the target size of 10-20 mm^3 (7-10 days after cell implantation).
Imaging experiments were performed using the preclinical optical system IVIS Spectrum (Perkin Elmer). Animals were intravenously injected (lateral tail vein) with 3 nmol/mouse, at 24 hours post-administration were euthanized by anesthesia overdose, and the tongues were excised for ex vivo optical imaging. […]

[7] = test system: human colorectal adenocarcinoma cells HT-29; assay: Tumor uptake in animal model of human colorectal cancer (subcutaneous), ex vivo optical imaging; conditions: ex vivo tumor-to-muscle, 24 h after i.v. administration, colorectal cancer bearing mice, n = 5/group
Protocol: Tumor uptake experiments were performed in an animal model of human colorectal cancer (subcutaneous), using HT-29 cells, expressing low levels of integrin receptors. Briefly, the human colorectal adenocarcinoma cells HT-29 (ATCC, HTB-38) were cultured in McCoy's 5 A medium supplemented with 10% foetal bovine serum, 2 mM glutamine, 100 IU/mL penicillin and 100 μg/mL streptomycin. Male Athymic nude mice, 4-6 weeks of age (Envigo), underwent subcutaneous implantation (right flank) of about 5 million cells suspended in 0.1 mL of serum-free medium. Mice were housed 4 per cage with food and water ad libitum. […] Then, AIN-76a rodent diet irradiated (Research Diets), a special diet that reduces auto-fluorescence, was used up to the end of the experiments. Tumor growth was monitored by longitudinal assessments using a caliper up to the target size of 300-600 mm^3 (3-4 weeks after cell implantation). […]
In vivo imaging was performed under gas anesthesia (Sevofluorane 6-8% in oxygen). […] Regions of interest (ROIs) were drawn on the excised tumor and healthy reference tissue (muscle) to evaluate signal intensity (expressed as Average Radiant Efficiency). The ratio between the fluorescence signal in the tumor and in the muscle (background tissue) was then calculated to assess the tumor-to-background ratio (TBR).

[8] = Seronorm (clinical chemistry control serum)

T2 sequence (P06756 31-992 limits assumed): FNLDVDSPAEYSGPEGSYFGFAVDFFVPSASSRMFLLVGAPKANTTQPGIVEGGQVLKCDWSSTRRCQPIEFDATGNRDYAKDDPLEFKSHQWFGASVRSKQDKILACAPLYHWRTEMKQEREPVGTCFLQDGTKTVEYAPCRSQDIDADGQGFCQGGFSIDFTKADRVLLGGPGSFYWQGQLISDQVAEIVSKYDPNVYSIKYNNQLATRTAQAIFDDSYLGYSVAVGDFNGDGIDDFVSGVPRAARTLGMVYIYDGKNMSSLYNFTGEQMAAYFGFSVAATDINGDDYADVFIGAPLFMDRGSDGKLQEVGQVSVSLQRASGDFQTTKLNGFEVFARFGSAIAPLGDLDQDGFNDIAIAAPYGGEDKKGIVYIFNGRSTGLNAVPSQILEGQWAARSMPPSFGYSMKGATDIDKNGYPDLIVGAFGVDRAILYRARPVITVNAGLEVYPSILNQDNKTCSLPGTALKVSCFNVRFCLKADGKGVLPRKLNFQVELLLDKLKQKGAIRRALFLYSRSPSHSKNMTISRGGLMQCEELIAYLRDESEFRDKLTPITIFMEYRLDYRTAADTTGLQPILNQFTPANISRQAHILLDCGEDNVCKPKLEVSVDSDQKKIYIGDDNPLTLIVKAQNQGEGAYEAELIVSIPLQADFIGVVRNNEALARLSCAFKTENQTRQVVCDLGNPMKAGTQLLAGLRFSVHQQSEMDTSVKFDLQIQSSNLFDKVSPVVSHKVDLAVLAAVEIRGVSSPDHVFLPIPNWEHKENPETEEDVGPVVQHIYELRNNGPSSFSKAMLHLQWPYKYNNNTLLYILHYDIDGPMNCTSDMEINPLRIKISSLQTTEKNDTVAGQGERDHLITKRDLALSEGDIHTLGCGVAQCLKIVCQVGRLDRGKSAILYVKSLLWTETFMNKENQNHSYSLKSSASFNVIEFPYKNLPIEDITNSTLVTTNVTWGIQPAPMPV
T2 sequence (P05106 27-718 limits assumed): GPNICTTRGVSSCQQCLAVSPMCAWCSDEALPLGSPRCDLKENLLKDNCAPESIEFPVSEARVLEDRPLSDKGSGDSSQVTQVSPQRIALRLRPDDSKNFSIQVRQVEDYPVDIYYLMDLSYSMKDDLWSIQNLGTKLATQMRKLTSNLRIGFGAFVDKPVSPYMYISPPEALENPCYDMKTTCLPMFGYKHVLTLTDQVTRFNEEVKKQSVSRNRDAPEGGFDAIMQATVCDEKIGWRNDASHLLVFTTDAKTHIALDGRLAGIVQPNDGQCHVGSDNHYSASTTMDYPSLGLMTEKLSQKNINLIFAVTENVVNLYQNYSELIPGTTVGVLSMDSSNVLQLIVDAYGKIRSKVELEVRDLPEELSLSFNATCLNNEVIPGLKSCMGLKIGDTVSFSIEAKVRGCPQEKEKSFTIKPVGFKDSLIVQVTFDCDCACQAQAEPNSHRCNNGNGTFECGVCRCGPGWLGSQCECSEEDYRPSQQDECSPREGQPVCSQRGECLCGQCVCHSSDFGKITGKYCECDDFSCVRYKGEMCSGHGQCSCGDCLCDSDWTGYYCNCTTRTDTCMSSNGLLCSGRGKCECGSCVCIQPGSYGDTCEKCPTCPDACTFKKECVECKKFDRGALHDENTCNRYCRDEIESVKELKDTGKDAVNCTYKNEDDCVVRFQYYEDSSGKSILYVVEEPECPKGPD
T1 sequence (P02768 25-609): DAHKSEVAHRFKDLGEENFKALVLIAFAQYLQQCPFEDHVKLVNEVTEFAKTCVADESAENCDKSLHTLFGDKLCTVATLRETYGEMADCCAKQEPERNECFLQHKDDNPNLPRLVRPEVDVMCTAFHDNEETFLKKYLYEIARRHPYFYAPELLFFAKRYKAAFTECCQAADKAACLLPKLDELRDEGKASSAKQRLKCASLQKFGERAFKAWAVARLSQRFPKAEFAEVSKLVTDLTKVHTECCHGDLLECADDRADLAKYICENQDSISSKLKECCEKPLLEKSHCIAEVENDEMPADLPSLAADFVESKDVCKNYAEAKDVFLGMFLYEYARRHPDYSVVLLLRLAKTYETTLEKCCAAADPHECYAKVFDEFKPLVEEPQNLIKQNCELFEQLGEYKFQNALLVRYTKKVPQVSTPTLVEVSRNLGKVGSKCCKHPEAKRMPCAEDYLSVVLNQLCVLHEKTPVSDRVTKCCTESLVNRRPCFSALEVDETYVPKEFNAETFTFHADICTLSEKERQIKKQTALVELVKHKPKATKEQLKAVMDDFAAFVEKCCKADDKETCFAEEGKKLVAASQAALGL

| Compound | Max Em (emission maximum) ([1]; PBS pH 7.4) [nm] | Max Ex (excitation maximum) ([1]; PBS pH 7.4) [nm] | Φ (absolute fluorescence quantum yield) ([1]; PBS pH 7.4) [%] | Φ (absolute fluorescence quantum yield) [1, 8] [%] | Kd [2] [nM] | IC50 [3] [nM] | Residual cell uptake in presence of human serum [4] [%] | Tumor-to-background ratio (mean ± St. Dev) [5] | Tumor-to-background ratio (mean ± St. Dev) [6] | Tumor-to-background ratio (mean ± St. Dev) [7] |
| --- | --- | --- | --- | --- | --- | --- | --- | --- | --- | --- |
| CC1(C)C(/C=C/C2=C(Oc3ccccc3)C(=C/C=C3/N(CCCCCC(=O)NCCCCC4NC(=O)[C@@H](Cc5ccccc5)NC(=O)[C@H](CC(=O)O)NC(=O)CNC(=O)[C@H](CCCNC(=N)N)NC4=O)c4ccc(C(=O)NCC(O)C(O)C(O)C(O)CO)cc4C3(C)C)/CCC2)=[N+](CCCCS(=O)(=O)[O-])c2ccc(C(=O)NCC(O)C(O)C(O)C(O)CO)cc21 (stereo partly shown) [Compound 4] | 803 | 781 | 5.0 | 9.9 | 100000 | 1.84 ± 0.38 | 85 | 7.64 ± 0.86 |  |  |
| CC1(C)C(/C=C/C2=C(c3ccc(CCC(=O)NCCCCC4NC(=O)[C@@H](Cc5ccccc5)NC(=O)[C@H](CC(=O)O)NC(=O)CNC(=O)[C@H](CCCNC(=N)N)NC4=O)cc3)C(=C/C=C3/N(CCCCS(=O)(=O)O)c4ccc(C(=O)NCC(O)C(O)C(O)C(O)CO)cc4C3(C)C)/CCC2)=[N+](CCCCS(=O)(=O)[O-])c2ccc(C(=O)NCC(O)C(O)C(O)C(O)CO)cc21 (stereo partly shown) [Compound 1] | 788 | 771 | 4.4 | 10.9 |  | 2.73 ± 0.5 |  | 6.92 ± 0.64 | 2.27 ± 0.50 | 4.30 ± 1.50 |
| CC1(C)C(/C=C/C2=C(Oc3ccc(S(=O)(=O)O)cc3)C(=C/C=C3/N(CCCCCC(=O)NCCCCC4NC(=O)[C@@H](Cc5ccccc5)NC(=O)[C@H](CC(=O)O)NC(=O)CNC(=O)[C@H](CCCNC(=N)N)NC4=O)c4ccc(C(=O)NCC(O)C(O)C(O)C(O)CO)cc4C3(C)C)/CCC2)=[N+](CCCCS(=O)(=O)[O-])c2ccc(C(=O)NCC(O)C(O)C(O)C(O)CO)cc21 (stereo partly shown) [Compound 2] | 805 | 783 | 6.1 | 7.5 | 38200 | 1.64 ± 0.41 | 90 |  | 2.26 ± 0.10 | 4.20 ± 0.80 |
